Residue numbers refer to the chain shown, from its start.
B1: Antibody hCD27.131A (mouse parental 131A) (antibody, V domains shown)
VH: QIQLVQSGPELKKPGETVKISCKASGYTFTNYGMNWVKQAPGKGLKWMGWINTNTGEPTYAEEFKGRFAFSLETSATTAYLQINNLKNEDTATYFCAREGDAMDYWGQGTSVTVSS
VL: QIVLTQSPAIMSASPGEKVTMTCSASSSVSYMHWYQQKSGTSPKRWIYDTSKLASGVPARFSGSGSGTSYSLTISSMEAEDAATYYCQQWNSYPFTFGSGTKLEIK
notes: mouse IgG1; also called mouse hCD27.131A

Legend:
Experiment in all cases: flow cytometry, CHO-K1; sub-column 1 of 2
G16A = target: T1, G16A
T1 construct: also called hCD27 G16A
T1 receptor: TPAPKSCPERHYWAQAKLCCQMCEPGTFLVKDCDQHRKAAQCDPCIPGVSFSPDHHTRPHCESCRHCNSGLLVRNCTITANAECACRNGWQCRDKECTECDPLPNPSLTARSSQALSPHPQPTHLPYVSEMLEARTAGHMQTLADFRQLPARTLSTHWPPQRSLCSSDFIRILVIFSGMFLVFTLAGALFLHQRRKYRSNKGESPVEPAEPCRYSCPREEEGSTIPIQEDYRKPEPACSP

F28A = target: T2, F28A
T2 construct: also called hCD27 F28A
T2 receptor: T1 receptor with A16G, F28A

D32A = target: T3, D32A
T3 construct: also called hCD27 D32A
T3 receptor: T1 receptor with A16G, D32A

D43A = target: T4, D43A
T4 construct: also called hCD27 D43A
T4 receptor: T1 receptor with A16G, D43A

I46A = target: T5, I46A
T5 construct: also called hCD27 I46A
T5 receptor: T1 receptor with A16G, I46A

H60A = target: T6, H60A
T6 construct: also called hCD27 H60A
T6 receptor: T1 receptor with A16G, H60A

R87A = target: T7, R87A
T7 construct: also called hCD27 R87A
T7 receptor: T1 receptor with A16G, R87A

G89A = target: T8, G89A
T8 construct: also called hCD27 G89A
T8 receptor: T1 receptor with A16G, G89A

W90A = target: T9, W90A
T9 construct: also called hCD27 W90A
T9 receptor: T1 receptor with A16G, W90A

P8A = target: T10, P8A
T10 construct: also called hCD27 P8A
T10 receptor: T1 receptor with P8A, A16G

Molecule	% of WT hCD27 binding (geo mean FITC) (G16A) [%]	% of WT hCD27 binding (geo mean FITC) (F28A) [%]	% of WT hCD27 binding (geo mean FITC) (D32A) [%]	% of WT hCD27 binding (geo mean FITC) (D43A) [%]	% of WT hCD27 binding (geo mean FITC) (I46A) [%]	% of WT hCD27 binding (geo mean FITC) (H60A) [%]	% of WT hCD27 binding (geo mean FITC) (R87A) [%]	% of WT hCD27 binding (geo mean FITC) (G89A) [%]	% of WT hCD27 binding (geo mean FITC) (W90A) [%]	% of WT hCD27 binding (geo mean FITC) (P8A) [%]
1A4 (mouse IgG1) (antibody)	90.8	113	43.7	195	129	167	143	100	123	84.5
9F4 (mouse IgG2a) (antibody)	94.7	115	118	201	137	185	153	116	130	68.5
B1	94.8	106	113	194	132	178	153	113	126	44.9

— patent US20190300618A1 (Merck Sharp & Dohme, published 2019)
